Source: paper PMC10343800, “A Novel LSTM-Based Machine Learning Model for Predicting the Activity of Food Protein-Derived Antihypertensive Peptides” (Molecules, 2023)
pIC50: −log10 of the molar value. Ends that are not written are not given here. Peptide text beside a SMILES is read from it.

target: T1, ACE (Homo sapiens, UniProt P12821); test: not given; details: in vitro ACE inhibition; read-out: Reported IC50; cited from earlier work
T1 sequence (P12821 30-1306, species assumed): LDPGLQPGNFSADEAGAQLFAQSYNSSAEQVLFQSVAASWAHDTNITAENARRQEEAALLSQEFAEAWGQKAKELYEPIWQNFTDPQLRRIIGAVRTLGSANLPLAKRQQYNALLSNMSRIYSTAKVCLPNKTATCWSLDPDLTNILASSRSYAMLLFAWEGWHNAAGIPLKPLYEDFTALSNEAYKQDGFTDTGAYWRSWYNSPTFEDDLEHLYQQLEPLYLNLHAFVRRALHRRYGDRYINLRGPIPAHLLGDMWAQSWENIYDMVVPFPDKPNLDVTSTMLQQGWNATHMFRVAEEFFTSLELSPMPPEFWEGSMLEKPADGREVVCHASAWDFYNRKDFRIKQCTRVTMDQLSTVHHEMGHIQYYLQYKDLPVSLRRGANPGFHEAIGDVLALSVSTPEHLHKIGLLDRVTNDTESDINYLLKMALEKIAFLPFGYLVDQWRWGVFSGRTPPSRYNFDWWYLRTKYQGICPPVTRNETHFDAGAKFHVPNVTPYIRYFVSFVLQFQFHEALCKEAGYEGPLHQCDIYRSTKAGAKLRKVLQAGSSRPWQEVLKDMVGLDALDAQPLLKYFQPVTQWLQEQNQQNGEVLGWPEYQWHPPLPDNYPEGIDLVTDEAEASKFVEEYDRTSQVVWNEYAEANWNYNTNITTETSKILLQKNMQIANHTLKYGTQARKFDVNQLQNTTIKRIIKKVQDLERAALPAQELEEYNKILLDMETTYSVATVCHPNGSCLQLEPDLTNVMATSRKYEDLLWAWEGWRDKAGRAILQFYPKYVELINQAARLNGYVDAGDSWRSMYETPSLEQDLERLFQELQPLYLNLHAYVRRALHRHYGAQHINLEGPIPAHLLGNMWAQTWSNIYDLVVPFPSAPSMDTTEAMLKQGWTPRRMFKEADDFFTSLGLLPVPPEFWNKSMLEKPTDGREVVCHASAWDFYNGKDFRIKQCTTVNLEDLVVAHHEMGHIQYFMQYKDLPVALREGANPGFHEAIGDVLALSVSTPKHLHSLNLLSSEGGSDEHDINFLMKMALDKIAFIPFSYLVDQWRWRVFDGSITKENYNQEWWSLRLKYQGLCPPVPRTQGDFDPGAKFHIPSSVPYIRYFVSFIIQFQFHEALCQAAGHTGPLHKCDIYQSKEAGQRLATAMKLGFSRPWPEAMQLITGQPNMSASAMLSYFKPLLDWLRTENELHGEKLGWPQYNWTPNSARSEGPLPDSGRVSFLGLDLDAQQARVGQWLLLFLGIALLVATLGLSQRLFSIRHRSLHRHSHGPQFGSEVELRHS

Compound | pIC50
AFVGYVLP | 4.84
CTFSIPAQC | 4.61
DAQSAPLRVY | 4.91
DKVGINYW | 4.60
EKSYELP | 4.74
GAAELPCSADWW | 4.96
HLNVVHGN | 4.29
IISKIK | 5.92
ILSKLK | 5.40
IPPAYTK | 4.63
KGYGGVSLPEW | 6.15
KIDKVVK | 6.21
LDSPSEGRAPG | 4.75
LEEFCC | 5.73
LLVTLKK | 6.02
LRLESF | 5.27
LVLPGE | 4.87
LVLPGELAK | 3.74
MLPAY | 5.80
PAGELHP | 6.30
PGSGCAGTDL | 4.24
RDGGYCC | 6.08
TFQGGlPPHGIQVER (TFQGGPPHGIQVER) | 5.47
TVTNPARIA | 4.84
VDSDVVK | 5.06
VELYP | 5.28
VISDEDGVTH | 5.09
WQVLPNAVPAK | 3.00

target: T1, ACE; test: biochemical; details: not given
Protocol: An online tool (https://www.genscript.com/sms2/random_protein.html accessed on 1 March 2023) was used to randomly generate peptides in order to test the efficiency of the model. The top peptides with a small number of IC50 values were selected for synthesis. […] The peptides used for validation were synthesized by Genescript with a purity > 97%. The ACE inhibitory assay was performed according to a previous study with modifications. ACE, N-hippuryl-His-Leu tetrahydrate (HHL, Sigma-Aldrich, St. Louis, MI, USA) and the peptide samples were dissolved in 100 mM of boric acid containing 300 mM of NaCl (pH8.3). Firstly, 10 μL of the peptide solution was preincubated with 50 μL of 6.5 mM HHL at 37 °C for 5 min. Then, 5 μL of 0.1UN/mL ACE (preincubated at 37 °C) was added to the reaction system and incubated at 37 °C for another 30 min. The reaction was terminated by adding 85 μL of 1 M HCl. The concentration of hippuric acid (Hip, the reaction product) was measured by HPLC with a C18 column (5 µm, 250 mm × 4.6 mm). The sample (20 μL) was eluted by a gradient of solvent A (H2O with 0.05% TFA) and solvent B (acetonitrile with 0.05% TFA) at a flow rate of 1.2 mL/min. The absorbance at 228 nm was monitored. The concentration of HA was calculated based on its standard curve. The area under each peak was calculated, in which A = the area under the peak of the blank group (without the peptide) and B = the area under the peak of the peptide group. The ACE inhibitory ratio = (A − B)/A. The ACE inhibitory ratio of each peptide at different concentrations was measured.

Compound | pIC50
CC(C)C[C@H](NC(=O)[C@H](C)N)C(=O)N1CCC[C@H]1C(=O)N[C@@H](CC(=O)O)C(=O)O [ALPD] (H-ALPD-OH) | 5.81
C[C@H](NC(=O)[C@H](CCCCN)NC(=O)[C@H](CC(=O)O)NC(=O)[C@@H](N)Cc1ccccc1)C(=O)O [FDKA] (H-FDKA-OH) | 6.22
CC[C@H](C)[C@H](NC(=O)[C@@H](N)Cc1ccccc1)C(=O)O [FI] (H-Phe-Ile-OH) | 6.51
C[C@H](NC(=O)[C@@H]1CCCN1C(=O)CN)C(=O)N[C@@H](Cc1ccc(O)cc1)C(=O)O [GPAY] (H-GPAY-OH) | 6.43
CC(C)[C@H](NC(=O)CN)C(=O)N1CCC[C@H]1C(=O)N[C@@H](CCCCN)C(=O)O [GVPK] (H-GVPK-OH) | 6.60
N=C(N)NCCC[C@H](NC(=O)[C@H](Cc1c[nH]cn1)NC(=O)[C@H](CC(=O)O)NC(=O)[C@@H](N)Cc1c[nH]cn1)C(=O)O [HDHR] (H-HDHR-OH) | 6.23
CC[C@H](C)[C@H](NC(=O)[C@@H]1CCCN1C(=O)[C@H](CCCCN)NC(=O)[C@@H](N)CC(C)C)C(=O)O [LKPI] (H-LKPI-OH) | 6.41
CC(C)C[C@H](NC(=O)[C@@H](NC(=O)[C@@H](N)CC(C)C)C(C)C)C(=O)O [LVL] (H-Leu-Val-Leu-OH) | 6.49
FALPC [FALPC] | 6.80
IQWCA [IQWCA] | 7.00
KLPAY [KLPAY] | 6.92
LKPDQ [LKPDQ] | 6.06
LKPNS [LKPNS] | 6.30
PDFLI [PDFLI] | 6.48
PLPLL [PLPLL] | 6.70
VAWKL [VAWKL] | 6.64
VHLAP [VHLAP] | 6.48
VYHEL [VYHEL] | 6.42

same assay, conditions: 6.5 mM HHL, 0.1 UN/mL ACE, 100 mM boric acid with 300 mM NaCl pH 8.3, 37 °C, 5 min preincubation, 30 min incubation; hippuric acid by HPLC C18, 228 nm; read-out: Experimental IC50

Compound | pIC50
CC(C)C[C@H](NC(=O)[C@H](CCCCN)NC(=O)[C@@H](N)CC(C)C)C(=O)O [LKL] (H-Leu-Lys-Leu-OH) | 6.25
N[C@@H](Cc1c[nH]c2ccccc12)C(=O)N[C@@H](CC(=O)O)C(=O)O [WD] (H-Trp-Asp-OH) | 6.29
